In article PMC4703070, “cryo-EM structures of the E. coli replicative DNA polymerase reveal its dynamic interactions with the DNA sliding clamp, exonuclease and τ” (eLife, 2015):

Legend:
Pol IV = biological target: T1, Pol IV (Escherichia coli, UniProt Q47155 1-351); test: EMSA; 2.5 μM protein, 5 nM DNA; EMSA: 20 mM Tris pH 7.5, 4% glycerol, 5 mM DTT, 40 μg/ml BSA, 40 mM K glutamate, 10 min room temperature, native 6% gel; cryo-EM: 25 mM Hepes pH 7.5, 50 mM K glutamate, 3 mM Mg acetate, 2 mM DTT, ~4 μM complex + 20 μM DNA, room temperature, then Tween 20; settings: protein: recombinant; label: 6-FAM at 5' end of primer strand; 25 bp duplex, 5' overhang 4 nt on template strand
T1 sequence: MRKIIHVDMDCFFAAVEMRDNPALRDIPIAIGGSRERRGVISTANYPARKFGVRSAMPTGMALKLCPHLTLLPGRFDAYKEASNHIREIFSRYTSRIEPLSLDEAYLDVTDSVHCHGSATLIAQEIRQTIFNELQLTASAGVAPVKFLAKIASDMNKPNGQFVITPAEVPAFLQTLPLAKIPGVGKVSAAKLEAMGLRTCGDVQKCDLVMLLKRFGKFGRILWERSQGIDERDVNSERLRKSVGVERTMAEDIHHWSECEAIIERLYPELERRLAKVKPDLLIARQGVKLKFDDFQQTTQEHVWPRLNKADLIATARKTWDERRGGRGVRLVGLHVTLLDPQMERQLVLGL

Pol I (Klenow fragment) = Pol I (Klenow fragment) (Escherichia coli, UniProt P00582 324-928); test: as above; settings: protein: recombinant; label: 6-FAM at 5' end of primer strand; 25 bp duplex, 5' overhang 4 nt on template strand
[1] = biological target: PolIIIα (clamp-binding motif QADMF to QLDLF);DNA sliding clamp β;exonuclease ε (clamp-binding motif QTSMAF to … (Escherichia coli;Escherichia …, UniProt P10443;P0A988;P03007;P06710 1-1160;1-366;1-243;500-643, A921L;M923L||T183L;M185L;A186P;F187L|)); test: cryo-EM; 3 mM Mg acetate; 8.0 Å DNA-bound map (7.3 Å for class without visible tail/τ500); EMSA: 20 mM Tris pH 7.5, 4% glycerol, 5 mM DTT, 40 μg/ml BSA, 40 mM K glutamate, 10 min room temperature, native 6% gel; cryo-EM: 25 mM Hepes pH 7.5, 50 mM K glutamate, 3 mM Mg acetate, 2 mM DTT, ~4 μM complex + 20 μM DNA, room temperature, then Tween 20; settings: protein: recombinant;recombinant;recombinant;recombinant; tags: ;;;His-tag removed (HRV 3C); copies: 1;2;1;1; 25 bp duplex, 5' overhang 4 nt on template strand
[2] = biological target: T2, E. coli DNA polymerase III α with improved clamp binding motif (PolIIIα^QLDLF) (E. coli, UniProt P10443 1-1160, 920-924 QADMF to QLDLF); test: cryo-EM structure; four-protein complex assembled at 15 μM, gel filtration in 25 mM Hepes pH 7.5, 50 mM potassium glutamate, 3 mM magnesium acetate, 2 mM DTT; peak fraction (~4 μM) with 20 μM 25 bp DNA substrate; DNA-free (8.3 Å), DNA-bound (8.0 Å) and DNA-bound without tail (7.3 Å) classes from a single data set; crystal and NMR structures fitted as rigid bodies; settings: both partners purified
T2 construct: DNA polymerase III subunit α (PolIIIα), E. coli; It says that His-tags were removed with 3C protease but not which of the proteins carried one; PDB 2HNH lacks the C-terminal tail; source: E. coli (DE3) BL21, purified (as described in Toste Rêgo et al., 2013)

[3] = biological target: T3, E. coli DNA sliding clamp β (E. coli, UniProt P0A988 1-366); test: as above; settings: both partners purified
T3 construct: DNA polymerase III β subunit (DNA sliding clamp), E. coli; dimeric; It says that His-tags were removed with 3C protease but not which of the proteins carried one; also called β subunit; source: E. coli (DE3) BL21, purified (as described in Toste Rêgo et al., 2013)

B1: 25 bp primer-template with 4 nt overhang (EMSA) (dsDNA)
DNA 1: TCAGGAGTCCTTCGTCCTAGTACTACTCC
DNA 2: GGAGTAGTACTAGGACGAAGGACTC
modifications: phosphorothioate at 3' terminal bond (primer; strand implied)
binding result (Pol IV): binds | binding result (Pol I (Klenow fragment)): binds

B2: 25 bp primer-template with 4 nt overhang (cryo-EM) (dsDNA)
DNA 1: TCAGGAGTCCTTCGTCCTAGTACTACTCC
DNA 2: GGAGTAGTACTAGGACGAAGGACTC
binding result [1]: binds

B3: τ500 (the polymerase-binding domain of τ: residues 500–643) (domain or fragment, E. coli, UniProt P06710 500-643, looked up)
chain: ALEHEKTPELAAKLAAEAIERDPWAAQVSQLSLPKLVEQVALNAWKEESDNAVCLHLRSSQRHLNNRGAQQKLAEALSMLKGSTVELTIVEDDNPAVRTPLEWRQAIYEEKLAQARESIIADNNIQTLRRFFDAELDEESIRPI
notes: PDB 2AYA (NMR) holds residues 500-621 only; His-tags were removed with human rhinovirus 3C protease; also called τc; C-terminal domain of the clamp loader subunit τ; source: E. coli (DE3) BL21, purified (Histrap HP, Resource S, Superdex 75)
binding result [2]: binds

B4: E. coli proofreading exonuclease ε with improved clamp binding motif (exonuclease^QLSLPL) (enzyme, UniProt P03007 1-243, looked up)
chain: MSTAITRQIVLDTETTGMNQIGAHYEGHKIIEIGAVEVVNRRLTGNNFHVYLKPDRLVDPEAFGVHGIADEFLLDKPTFAEVADEFMDYIRGAELVIHNAAFDIGFMDYEFSLLKRDIPKTNTFCKVTDSLAVARKMFPGKRNSLDALCARYEIDNSKRTLHGALLDAQILAEVYLAMTGGQLSLPLAMEGETQQQQGEATIQRIVRQASKLRVVFATDEEIAAHEARLDLVQKKGGSCLWRA
notes: DNA polymerase III subunit ε (proofreading exonuclease), E. coli; residues 190-207 are a missing loop; source: E. coli (DE3) BL21, purified (as described in Toste Rêgo et al., 2013)
binding result [3]: binds | binding result [2]: binds
